Data from patent US9051364B2, “Composition for producing anti-amyloid beta peptide antibodies with D-peptides” (FORSCHUNGSZENTRUM JUELICH GMBH, priority 2008, dated 2015).
Where no end group is shown, it is not given here. [ ]: non-standard residue; d: D form.

Target: T1, amyloid beta peptide (Homo sapiens, UniProt P05067)
T1 construct: tested for the recognition of both the D3 peptide and the amyloid beta peptide in a standard ELISA
Test: Immunization of mice with D-peptides
Assay type: in vivo
Details: D3 covalently bonded to KLH, booster injections
Method: Mice were immunized with D-peptides. Use was made of the D3 peptide and also a retro-inverse peptide of the amyloid beta peptide (riAbeta1-16; retro-inverso-Abeta(1-16)). After multiple booster injections (booster effect), fusion to generate monoclonal antibodies was carried out according to standard methods. It was possible to isolate monoclonal antibodies which bind to D3, riAbetal-16, and to the amyloid beta peptide. The immunization with the mentioned D-peptides thus leads to a protective immune response against the amyloid beta peptide. D3 was covalently bonded (crosslinking) to KLH (keyhole limpet hemocyanin) and immunized mice with standard procedures. These were then fused with mouse myeloma cells according to standard protocols. The cell culture supernatant of the resulting hybridoma cells were then tested for the recognition of both the D3 peptide and the amyloid beta peptide in a standard ELISA.

T1 sequence (P05067 672-713 limits assumed): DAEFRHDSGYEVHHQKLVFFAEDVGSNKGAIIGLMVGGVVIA

rprtr lhthr nr ([dR][dP][dR][dT][dR][dL][dH][dT][dH][dR][dN][dR]; also: conjugated to KLH) [D3, D-peptide used as immunogen, covalently bonded to KLH]
antibody response against the amyloid beta peptide after immunization: results in an antibody response against the amyloid beta peptide
